Laboratory results as given in article PMC7764042.
pKd: −log10 of the molar value. Values belong to the substance of their own block, whether it stands above or below them.

Assays:
S100P (Homo sapiens) = S100P (Homo sapiens) (UniProt P25815); details: cited from earlier work
[1] = biological target: IFNAR2 ECD (Homo sapiens) (UniProt P48551); details: cited from earlier work
Tag7 (Homo sapiens) = Tag7 (Homo sapiens) (UniProt O75594); details: cited from earlier work
[2] = biological target: recombinant human interferon alfa-2b (human) (UniProt P01563); assay: SPR; IFN-α immobilised by amine coupling; S100 proteins as analyte; 25 °C; 10 mM HEPES, 150 mM NaCl, 0.01% TWEEN 20, pH 7.4

Substance: IFN-β (from UniProt P01574)
pKd (S100P (Homo sapiens)): 9.52 | pKd [1]: > 10.00

Substance: S100A4 (from UniProt P26447)
pKd (Tag7 (Homo sapiens)): 9.00

pKd [2]: < 5.00
Substance: recombinant human S100A1 (from UniProt P23297 2-94) (natural protein)

pKd [2]: < 5.00
Substance: recombinant human S100A4 (from UniProt P26447 1-101) (natural protein)
